Data reported in US20150196651A1 (published 2015).
Each block holds one binder with its values, some of them ahead of it. Numbered stars: 1 amine (or outer) side, 2 acyl side, 3 side chain; on linkers, the order of the positions; unused ones are H or OH. Square brackets hold non-standard residues; d marks the D form. Side chains are listed from the residue outwards. Ends that are not written are not given here. * marks the point of attachment. γGlu = O=C(O)[C@H](CCC(=O)[*:2])N[*:1]; Palmitoyl = CCCCCCCCCCCCCCCC(=O)*; Myristoyl = CCCCCCCCCCCCCC(=O)*; Lauroyl = CCCCCCCCCCCC(=O)*; Decanoyl = CCCCCCCCCC(=O)*; Nle = CCCC[C@H](N)C(=O)O; Octanoyl = CCCCCCCC(=O)*; GABA = NCCCC(=O)O

Assays:
[1] = target: T1, rat PrRP receptor in RC-4B/C cells (rat, UniProt Q64121 1-370); experiment: competition with 125I-rat PrRP31, RC-4B/C cells
T1 construct: whole, on cells; endogenous receptor of RC-4B/C cells (ATCC); also called rat receptor; GPR10 receptor expressed in rat hypophyseal cells
T1 sequence (looked up): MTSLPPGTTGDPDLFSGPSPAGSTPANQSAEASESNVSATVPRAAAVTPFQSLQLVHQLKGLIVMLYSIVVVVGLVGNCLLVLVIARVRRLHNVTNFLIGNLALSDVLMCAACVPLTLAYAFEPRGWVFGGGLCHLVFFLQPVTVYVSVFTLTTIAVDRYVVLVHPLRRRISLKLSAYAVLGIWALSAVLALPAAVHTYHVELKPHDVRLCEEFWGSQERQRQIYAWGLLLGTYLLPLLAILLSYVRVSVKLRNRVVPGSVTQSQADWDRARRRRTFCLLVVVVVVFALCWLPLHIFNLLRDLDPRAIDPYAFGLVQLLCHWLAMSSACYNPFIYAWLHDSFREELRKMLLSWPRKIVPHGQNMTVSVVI
How it was run: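 Incubation 60 min at room temperature; cells solubilized in 0.1 mol/l NaOH and bound radioactivity γ-counted. Run in duplicate, repeated at least three times.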

[2] = target: T2, human PrRP receptor GPR10 (human, UniProt P49683 1-370); experiment: competition with 125I-human PrRP31, CHO cells with human GPR10
T2 construct: whole, on cells; also called GPR10 human receptor transfected in CHO cells; human GPR10 receptor
T2 sequence (looked up): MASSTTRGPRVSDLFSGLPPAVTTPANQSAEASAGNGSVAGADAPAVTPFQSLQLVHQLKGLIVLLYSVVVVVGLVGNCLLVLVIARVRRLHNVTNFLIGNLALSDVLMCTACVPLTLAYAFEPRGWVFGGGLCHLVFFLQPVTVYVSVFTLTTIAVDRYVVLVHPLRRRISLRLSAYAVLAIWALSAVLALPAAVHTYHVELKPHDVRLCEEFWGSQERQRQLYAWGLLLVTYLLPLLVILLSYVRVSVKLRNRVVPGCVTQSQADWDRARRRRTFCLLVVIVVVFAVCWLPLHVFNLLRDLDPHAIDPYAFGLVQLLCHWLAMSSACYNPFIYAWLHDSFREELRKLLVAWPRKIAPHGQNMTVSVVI

B2: analog no. 36 (peptide)
peptide: Myristoyl-[Nle]ETRTPDINPAWYTGRGIRPVGRF-NH2
SMILES: CCCCCCCCCCCCCC(=O)N[C@@H](CCCC)C(=O)N[C@@H](CCC(=O)O)C(=O)N[C@H](C(=O)N[C@@H](CCCNC(=N)N)C(=O)N[C@H](C(=O)N1CCC[C@H]1C(=O)N[C@@H](CC(=O)O)C(=O)N[C@H](C(=O)N[C@@H](CC(N)=O)C(=O)N1CCC[C@H]1C(=O)N[C@@H](C)C(=O)N[C@@H](Cc1c[nH]c2ccccc12)C(=O)N[C@@H](Cc1ccc(O)cc1)C(=O)N[C@H](C(=O)NCC(=O)N[C@@H](CCCNC(=N)N)C(=O)NCC(=O)N[C@H](C(=O)N[C@@H](CCCNC(=N)N)C(=O)N1CCC[C@H]1C(=O)N[C@H](C(=O)NCC(=O)N[C@@H](CCCNC(=N)N)C(=O)N[C@@H](Cc1ccccc1)C(N)=O)C(C)C)[C@@H](C)CC)[C@@H](C)O)[C@@H](C)CC)[C@@H](C)O)[C@@H](C)O
notes: lipidized shortened PrRP31 analog; also called 36 short
% of PrRP31 [1]: 1100%
Ki [1]: 0.45 nM
% of PrRP31 [2]: 71%
Ki [2]: 5.48 nM

B3: analog no. 40 (peptide)
peptide: Decanoyl-TPDINPAWYASRGIRPVGRF-NH2
SMILES: CCCCCCCCCC(=O)N[C@H](C(=O)N1CCC[C@H]1C(=O)N[C@@H](CC(=O)O)C(=O)N[C@H](C(=O)N[C@@H](CC(N)=O)C(=O)N1CCC[C@H]1C(=O)N[C@@H](C)C(=O)N[C@@H](Cc1c[nH]c2ccccc12)C(=O)N[C@@H](Cc1ccc(O)cc1)C(=O)N[C@@H](C)C(=O)N[C@@H](CO)C(=O)N[C@@H](CCCNC(=N)N)C(=O)NCC(=O)N[C@H](C(=O)N[C@@H](CCCNC(=N)N)C(=O)N1CCC[C@H]1C(=O)N[C@H](C(=O)NCC(=O)N[C@@H](CCCNC(=N)N)C(=O)N[C@@H](Cc1ccccc1)C(N)=O)C(C)C)[C@@H](C)CC)[C@@H](C)CC)[C@@H](C)O
% of PrRP31 [1]: 1200%
Ki [1]: 0.41 nM
% of PrRP31 [2]: 129%
Ki [2]: 3.02 nM

B4: analog no. 38 (peptide)
peptide: Myristoyl-QHSMETRTPDINPAWYTGRGIRPVGRF-NH2
SMILES: CCCCCCCCCCCCCC(=O)N[C@@H](CCC(N)=O)C(=O)N[C@@H](Cc1c[nH]cn1)C(=O)N[C@@H](CO)C(=O)N[C@@H](CCSC)C(=O)N[C@@H](CCC(=O)O)C(=O)N[C@H](C(=O)N[C@@H](CCCNC(=N)N)C(=O)N[C@H](C(=O)N1CCC[C@H]1C(=O)N[C@@H](CC(=O)O)C(=O)N[C@H](C(=O)N[C@@H](CC(N)=O)C(=O)N1CCC[C@H]1C(=O)N[C@@H](C)C(=O)N[C@@H](Cc1c[nH]c2ccccc12)C(=O)N[C@@H](Cc1ccc(O)cc1)C(=O)N[C@H](C(=O)NCC(=O)N[C@@H](CCCNC(=N)N)C(=O)NCC(=O)N[C@H](C(=O)N[C@@H](CCCNC(=N)N)C(=O)N1CCC[C@H]1C(=O)N[C@H](C(=O)NCC(=O)N[C@@H](CCCNC(=N)N)C(=O)N[C@@H](Cc1ccccc1)C(N)=O)C(C)C)[C@@H](C)CC)[C@@H](C)O)[C@@H](C)CC)[C@@H](C)O)[C@@H](C)O
notes: lipidized shortened PrRP31 analog; also called 38 short
% of PrRP31 [1]: 1330%
Ki [1]: 0.37 nM
% of PrRP31 [2]: 56%
Ki [2]: 6.93 nM

B5: analog no. 37 (peptide)
peptide: QHSMETRTPDINPAWYTGRGIRPVGRF-NH2
notes: shortened PrRP31 analog; also called 37 short
% of PrRP31 [1]: 189%
Ki [1]: 2.61 nM
% of PrRP31 [2]: 66%
Ki [2]: 5.92 nM

B6: analog no. 35 (peptide)
peptide: [Nle]ETRTPDINPAWYTGRGIRPVGRF-NH2
modifications: N-terminus assumed
SMILES: CCCC[C@H](N)C(=O)N[C@@H](CCC(=O)O)C(=O)N[C@H](C(=O)N[C@@H](CCCNC(=N)N)C(=O)N[C@H](C(=O)N1CCC[C@H]1C(=O)N[C@@H](CC(=O)O)C(=O)N[C@H](C(=O)N[C@@H](CC(N)=O)C(=O)N1CCC[C@H]1C(=O)N[C@@H](C)C(=O)N[C@@H](Cc1c[nH]c2ccccc12)C(=O)N[C@@H](Cc1ccc(O)cc1)C(=O)N[C@H](C(=O)NCC(=O)N[C@@H](CCCNC(=N)N)C(=O)NCC(=O)N[C@H](C(=O)N[C@@H](CCCNC(=N)N)C(=O)N1CCC[C@H]1C(=O)N[C@H](C(=O)NCC(=O)N[C@@H](CCCNC(=N)N)C(=O)N[C@@H](Cc1ccccc1)C(N)=O)C(C)C)[C@@H](C)CC)[C@@H](C)O)[C@@H](C)CC)[C@@H](C)O)[C@@H](C)O
notes: shortened PrRP31 analog; also called 35 short
% of PrRP31 [1]: 168%
Ki [1]: 2.94 nM
% of PrRP31 [2]: 113%
Ki [2]: 3.44 nM

B7: analog no. 39 (peptide)
peptide: Octanoyl-TPDINPAWYASRGIRPVGRF-NH2
SMILES: CCCCCCCC(=O)N[C@H](C(=O)N1CCC[C@H]1C(=O)N[C@@H](CC(=O)O)C(=O)N[C@H](C(=O)N[C@@H](CC(N)=O)C(=O)N1CCC[C@H]1C(=O)N[C@@H](C)C(=O)N[C@@H](Cc1c[nH]c2ccccc12)C(=O)N[C@@H](Cc1ccc(O)cc1)C(=O)N[C@@H](C)C(=O)N[C@@H](CO)C(=O)N[C@@H](CCCNC(=N)N)C(=O)NCC(=O)N[C@H](C(=O)N[C@@H](CCCNC(=N)N)C(=O)N1CCC[C@H]1C(=O)N[C@H](C(=O)NCC(=O)N[C@@H](CCCNC(=N)N)C(=O)N[C@@H](Cc1ccccc1)C(N)=O)C(C)C)[C@@H](C)CC)[C@@H](C)CC)[C@@H](C)O
% of PrRP31 [1]: 530%
Ki [1]: 0.93 nM
% of PrRP31 [2]: 201%
Ki [2]: 1.94 nM

Next, values leading:

% of PrRP31 [1]: 822%
Ki [1]: 0.6 nM
% of PrRP31 [2]: 161%
Ki [2]: 2.41 nM
B1: analog no. 41 (peptide)
peptide: Lauroyl-TPDINPAWYASRGIRPVGRF-NH2
SMILES: CCCCCCCCCCCC(=O)N[C@H](C(=O)N1CCC[C@H]1C(=O)N[C@@H](CC(=O)O)C(=O)N[C@H](C(=O)N[C@@H](CC(N)=O)C(=O)N1CCC[C@H]1C(=O)N[C@@H](C)C(=O)N[C@@H](Cc1c[nH]c2ccccc12)C(=O)N[C@@H](Cc1ccc(O)cc1)C(=O)N[C@@H](C)C(=O)N[C@@H](CO)C(=O)N[C@@H](CCCNC(=N)N)C(=O)NCC(=O)N[C@H](C(=O)N[C@@H](CCCNC(=N)N)C(=O)N1CCC[C@H]1C(=O)N[C@H](C(=O)NCC(=O)N[C@@H](CCCNC(=N)N)C(=O)N[C@@H](Cc1ccccc1)C(N)=O)C(C)C)[C@@H](C)CC)[C@@H](C)CC)[C@@H](C)O

% of PrRP31 [1]: 190%
Ki [1]: 1.26 nM
% of PrRP31 [2]: 42.5%
Ki [2]: 9.19 nM
B8: analog no. 53 (peptide)
peptide: SRTHRHSMEIK([GABA-Palmitoyl])TPDINPAWYASRGIRPVGRF-NH2

% of PrRP31 [1]: 663%
Ki [1]: 0.36 nM
% of PrRP31 [2]: 103%
Ki [2]: 3.79 nM
B9: analog no. 57 (peptide)
peptide: SRTHRHSMEIKTPDINPAWYASRGIRPVGRF-NH2
modifications: not fully specified (residue 11)

% of PrRP31 [1]: 236%
% of PrRP31 [2]: 83%
Ki [2]: 4.72 nM
B10: analog no. 55 (peptide)
peptide: SETHRHSMEIK([γGlu-Palmitoyl])TPDINPAWYASRGIRPVGRF-NH2

% of PrRP31 [1]: 85%
Ki [1]: 2.82 nM
% of PrRP31 [2]: 12%
Ki [2]: 32.4 nM
B11: analog no. 59 (peptide)
peptide: SRTHRHSMEIKTPDINPAWYASRGIRPVGRF
modifications: (N-palm(N-POE)) at the N-terminus; K(N-palm(N-POE)) at residue 11; C-terminal amide

% of PrRP31 [1]: 57%
Ki [1]: 4.23 nM
% of PrRP31 [2]: 57%
Ki [2]: 5.66 nM
B12: analog no. 56 (peptide)
peptide: SETHEHSMEIK([γGlu-Palmitoyl])TPDINPAWYASRGIRPVGRF-NH2
modifications: N-terminus assumed
SMILES: CCCCCCCCCCCCCCCC(=O)N[C@@H](CCC(=O)NCCCC[C@H](NC(=O)[C@@H](NC(=O)[C@H](CCC(=O)O)NC(=O)[C@H](CCSC)NC(=O)[C@H](CO)NC(=O)[C@H](Cc1c[nH]cn1)NC(=O)[C@H](CCC(=O)O)NC(=O)[C@H](Cc1c[nH]cn1)NC(=O)[C@@H](NC(=O)[C@H](CCC(=O)O)NC(=O)[C@@H](N)CO)[C@@H](C)O)[C@@H](C)CC)C(=O)N[C@H](C(=O)N1CCC[C@H]1C(=O)N[C@@H](CC(=O)O)C(=O)N[C@H](C(=O)N[C@@H](CC(N)=O)C(=O)N1CCC[C@H]1C(=O)N[C@@H](C)C(=O)N[C@@H](Cc1c[nH]c2ccccc12)C(=O)N[C@@H](Cc1ccc(O)cc1)C(=O)N[C@@H](C)C(=O)N[C@@H](CO)C(=O)N[C@@H](CCCNC(=N)N)C(=O)NCC(=O)N[C@H](C(=O)N[C@@H](CCCNC(=N)N)C(=O)N1CCC[C@H]1C(=O)N[C@H](C(=O)NCC(=O)N[C@@H](CCCNC(=N)N)C(=O)N[C@@H](Cc1ccccc1)C(N)=O)C(C)C)[C@@H](C)CC)[C@@H](C)CC)[C@@H](C)O)C(=O)O
